From patent publication US10087225B2, “Formulation of MK2 inhibitor peptides” (MOERAE MATRIX, INC., priority 2015, dated 2018)

Key:
Assay in all cases: Kinase Profiling Assay
Type in all cases: biochemical
Conditions in all cases: for % activity: 100 μM
EGFR(L858R)(h) = EGFR(L858R)(h) (Homo sapiens, UniProt P00533, L858R)
IRAK4(h) = biological target: T1, IRAK4(h) (Homo sapiens, UniProt Q9NWZ3)
T1 sequence (Q9NWZ3 1-460): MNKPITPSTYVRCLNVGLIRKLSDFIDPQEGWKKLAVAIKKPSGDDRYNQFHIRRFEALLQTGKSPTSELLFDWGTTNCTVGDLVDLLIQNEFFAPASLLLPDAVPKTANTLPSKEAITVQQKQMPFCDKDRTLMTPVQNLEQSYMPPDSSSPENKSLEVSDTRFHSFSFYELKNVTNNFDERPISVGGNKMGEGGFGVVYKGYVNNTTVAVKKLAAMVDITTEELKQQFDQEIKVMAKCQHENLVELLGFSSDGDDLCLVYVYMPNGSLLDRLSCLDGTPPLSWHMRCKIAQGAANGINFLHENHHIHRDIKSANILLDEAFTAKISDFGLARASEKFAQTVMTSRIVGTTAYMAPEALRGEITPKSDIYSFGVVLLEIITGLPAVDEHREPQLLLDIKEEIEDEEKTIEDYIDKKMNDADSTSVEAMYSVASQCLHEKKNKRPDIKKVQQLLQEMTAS

KDR(h) = KDR(h) (Homo sapiens, UniProt P35968)
FGFR3(h) = FGFR3(h) (Homo sapiens, UniProt P22607)
Ret(h) = Ret(h) (Homo sapiens, UniProt P07949)
SRPK2(h) = SRPK2(h) (Homo sapiens, UniProt P78362)
IGF-1R(h), activated = IGF-1R(h), activated (Homo sapiens, UniProt P08069)
FGFR1(h) = FGFR1(h) (Homo sapiens, UniProt P11362)
MAPKAP-K3(h) = MAPKAP-K3(h) (Homo sapiens, UniProt Q16644)
DCAMKL2(h) = biological target: T2, DCAMKL2(h) (Homo sapiens, UniProt Q8N568)
T2 sequence (Q8N568 1-766): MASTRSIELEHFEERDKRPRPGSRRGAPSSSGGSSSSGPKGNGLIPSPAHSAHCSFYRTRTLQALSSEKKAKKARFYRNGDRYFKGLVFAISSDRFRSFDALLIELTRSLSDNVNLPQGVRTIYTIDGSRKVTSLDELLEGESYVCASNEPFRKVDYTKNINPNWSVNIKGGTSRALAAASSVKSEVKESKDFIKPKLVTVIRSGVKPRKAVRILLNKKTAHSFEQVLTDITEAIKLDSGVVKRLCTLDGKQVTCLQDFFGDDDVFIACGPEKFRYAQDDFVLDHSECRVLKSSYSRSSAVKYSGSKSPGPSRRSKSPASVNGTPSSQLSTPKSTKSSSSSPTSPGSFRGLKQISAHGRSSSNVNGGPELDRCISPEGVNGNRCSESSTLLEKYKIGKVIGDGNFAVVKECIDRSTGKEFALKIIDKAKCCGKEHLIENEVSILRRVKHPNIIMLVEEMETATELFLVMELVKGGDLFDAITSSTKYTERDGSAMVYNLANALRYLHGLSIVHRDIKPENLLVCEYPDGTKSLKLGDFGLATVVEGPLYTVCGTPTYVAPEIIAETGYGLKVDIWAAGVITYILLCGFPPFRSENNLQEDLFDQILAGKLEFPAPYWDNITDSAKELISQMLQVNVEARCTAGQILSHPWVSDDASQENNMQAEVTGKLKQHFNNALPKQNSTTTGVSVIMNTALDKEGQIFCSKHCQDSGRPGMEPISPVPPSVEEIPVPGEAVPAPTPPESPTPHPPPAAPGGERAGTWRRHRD

TrkB(h) = TrkB(h) (Homo sapiens, UniProt Q16620)
Fms(h) = Fms(h) (Homo sapiens, UniProt P07333)
DMPK(h) = biological target: T3, DMPK(h) (Homo sapiens, UniProt Q09013)
T3 sequence (Q09013 1-629): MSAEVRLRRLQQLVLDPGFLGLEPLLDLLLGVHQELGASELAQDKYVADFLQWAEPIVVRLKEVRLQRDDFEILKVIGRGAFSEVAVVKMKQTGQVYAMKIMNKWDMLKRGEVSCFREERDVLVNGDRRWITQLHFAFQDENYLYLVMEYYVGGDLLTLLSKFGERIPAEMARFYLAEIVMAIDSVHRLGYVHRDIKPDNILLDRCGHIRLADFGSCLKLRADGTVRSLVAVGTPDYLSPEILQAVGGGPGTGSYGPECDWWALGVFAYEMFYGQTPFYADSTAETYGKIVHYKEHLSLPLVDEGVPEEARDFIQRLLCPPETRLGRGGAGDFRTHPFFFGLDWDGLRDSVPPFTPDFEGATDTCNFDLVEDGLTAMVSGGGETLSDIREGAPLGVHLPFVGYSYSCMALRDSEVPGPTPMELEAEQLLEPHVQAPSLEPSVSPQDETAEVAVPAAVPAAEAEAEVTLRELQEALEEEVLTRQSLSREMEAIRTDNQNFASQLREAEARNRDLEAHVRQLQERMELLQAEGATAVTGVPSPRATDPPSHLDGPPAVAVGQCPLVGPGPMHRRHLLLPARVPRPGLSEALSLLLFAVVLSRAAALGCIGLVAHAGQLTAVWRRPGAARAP

Sequence of FGFR3(h) (P22607 23-806): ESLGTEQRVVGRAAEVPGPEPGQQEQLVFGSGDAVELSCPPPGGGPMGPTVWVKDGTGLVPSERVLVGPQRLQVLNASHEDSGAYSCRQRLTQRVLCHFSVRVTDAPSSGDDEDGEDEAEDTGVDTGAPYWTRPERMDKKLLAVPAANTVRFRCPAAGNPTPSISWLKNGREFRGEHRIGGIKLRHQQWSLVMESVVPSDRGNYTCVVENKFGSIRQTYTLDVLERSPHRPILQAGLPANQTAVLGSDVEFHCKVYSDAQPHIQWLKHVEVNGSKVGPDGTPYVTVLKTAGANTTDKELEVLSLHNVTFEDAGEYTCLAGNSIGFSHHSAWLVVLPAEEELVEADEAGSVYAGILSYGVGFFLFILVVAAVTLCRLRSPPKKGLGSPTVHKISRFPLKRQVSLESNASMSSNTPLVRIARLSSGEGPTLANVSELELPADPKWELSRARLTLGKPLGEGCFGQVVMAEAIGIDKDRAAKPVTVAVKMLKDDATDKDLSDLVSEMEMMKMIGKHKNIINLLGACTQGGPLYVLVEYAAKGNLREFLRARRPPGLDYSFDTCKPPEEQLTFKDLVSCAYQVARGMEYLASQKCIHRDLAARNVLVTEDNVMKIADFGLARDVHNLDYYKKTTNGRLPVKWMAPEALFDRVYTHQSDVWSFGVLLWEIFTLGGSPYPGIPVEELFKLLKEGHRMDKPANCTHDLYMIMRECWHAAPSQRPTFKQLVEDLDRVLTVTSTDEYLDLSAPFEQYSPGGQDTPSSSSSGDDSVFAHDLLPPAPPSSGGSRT
Sequence of MAPKAP-K3(h) (Q16644 whole entry): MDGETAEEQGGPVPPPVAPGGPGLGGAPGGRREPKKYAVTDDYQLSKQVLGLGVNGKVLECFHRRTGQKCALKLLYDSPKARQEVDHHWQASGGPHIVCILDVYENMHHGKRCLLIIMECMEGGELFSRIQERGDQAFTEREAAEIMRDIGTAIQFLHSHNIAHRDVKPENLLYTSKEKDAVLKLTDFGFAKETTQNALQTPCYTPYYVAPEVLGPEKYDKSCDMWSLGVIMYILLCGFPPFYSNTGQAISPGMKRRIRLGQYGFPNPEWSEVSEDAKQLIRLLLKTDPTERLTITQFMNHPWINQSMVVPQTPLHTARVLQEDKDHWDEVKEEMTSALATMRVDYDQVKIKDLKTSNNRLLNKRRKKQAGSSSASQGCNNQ
Sequence of FGFR1(h) (P11362 22-822): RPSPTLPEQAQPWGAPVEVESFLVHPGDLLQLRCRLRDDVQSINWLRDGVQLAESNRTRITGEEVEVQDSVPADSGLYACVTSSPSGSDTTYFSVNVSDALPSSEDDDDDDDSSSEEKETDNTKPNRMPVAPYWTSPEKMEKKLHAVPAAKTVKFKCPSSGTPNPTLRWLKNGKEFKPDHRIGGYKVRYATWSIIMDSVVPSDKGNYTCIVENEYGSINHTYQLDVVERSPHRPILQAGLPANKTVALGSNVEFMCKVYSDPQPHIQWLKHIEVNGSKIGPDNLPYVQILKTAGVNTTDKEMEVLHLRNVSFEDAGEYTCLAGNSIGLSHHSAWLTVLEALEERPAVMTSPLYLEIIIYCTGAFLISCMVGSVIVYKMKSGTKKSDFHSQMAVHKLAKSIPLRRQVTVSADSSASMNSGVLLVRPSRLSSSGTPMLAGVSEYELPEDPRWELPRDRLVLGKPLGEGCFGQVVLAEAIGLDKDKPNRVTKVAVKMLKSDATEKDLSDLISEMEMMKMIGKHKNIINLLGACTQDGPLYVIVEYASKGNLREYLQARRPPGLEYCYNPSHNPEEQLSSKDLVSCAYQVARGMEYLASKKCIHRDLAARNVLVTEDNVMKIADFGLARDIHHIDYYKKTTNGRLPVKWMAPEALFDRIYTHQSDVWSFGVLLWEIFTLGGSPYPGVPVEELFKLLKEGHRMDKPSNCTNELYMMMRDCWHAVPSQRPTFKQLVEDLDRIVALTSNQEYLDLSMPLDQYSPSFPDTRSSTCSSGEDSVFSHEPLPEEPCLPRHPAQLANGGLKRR
Sequence of KDR(h) (P35968 20-1356): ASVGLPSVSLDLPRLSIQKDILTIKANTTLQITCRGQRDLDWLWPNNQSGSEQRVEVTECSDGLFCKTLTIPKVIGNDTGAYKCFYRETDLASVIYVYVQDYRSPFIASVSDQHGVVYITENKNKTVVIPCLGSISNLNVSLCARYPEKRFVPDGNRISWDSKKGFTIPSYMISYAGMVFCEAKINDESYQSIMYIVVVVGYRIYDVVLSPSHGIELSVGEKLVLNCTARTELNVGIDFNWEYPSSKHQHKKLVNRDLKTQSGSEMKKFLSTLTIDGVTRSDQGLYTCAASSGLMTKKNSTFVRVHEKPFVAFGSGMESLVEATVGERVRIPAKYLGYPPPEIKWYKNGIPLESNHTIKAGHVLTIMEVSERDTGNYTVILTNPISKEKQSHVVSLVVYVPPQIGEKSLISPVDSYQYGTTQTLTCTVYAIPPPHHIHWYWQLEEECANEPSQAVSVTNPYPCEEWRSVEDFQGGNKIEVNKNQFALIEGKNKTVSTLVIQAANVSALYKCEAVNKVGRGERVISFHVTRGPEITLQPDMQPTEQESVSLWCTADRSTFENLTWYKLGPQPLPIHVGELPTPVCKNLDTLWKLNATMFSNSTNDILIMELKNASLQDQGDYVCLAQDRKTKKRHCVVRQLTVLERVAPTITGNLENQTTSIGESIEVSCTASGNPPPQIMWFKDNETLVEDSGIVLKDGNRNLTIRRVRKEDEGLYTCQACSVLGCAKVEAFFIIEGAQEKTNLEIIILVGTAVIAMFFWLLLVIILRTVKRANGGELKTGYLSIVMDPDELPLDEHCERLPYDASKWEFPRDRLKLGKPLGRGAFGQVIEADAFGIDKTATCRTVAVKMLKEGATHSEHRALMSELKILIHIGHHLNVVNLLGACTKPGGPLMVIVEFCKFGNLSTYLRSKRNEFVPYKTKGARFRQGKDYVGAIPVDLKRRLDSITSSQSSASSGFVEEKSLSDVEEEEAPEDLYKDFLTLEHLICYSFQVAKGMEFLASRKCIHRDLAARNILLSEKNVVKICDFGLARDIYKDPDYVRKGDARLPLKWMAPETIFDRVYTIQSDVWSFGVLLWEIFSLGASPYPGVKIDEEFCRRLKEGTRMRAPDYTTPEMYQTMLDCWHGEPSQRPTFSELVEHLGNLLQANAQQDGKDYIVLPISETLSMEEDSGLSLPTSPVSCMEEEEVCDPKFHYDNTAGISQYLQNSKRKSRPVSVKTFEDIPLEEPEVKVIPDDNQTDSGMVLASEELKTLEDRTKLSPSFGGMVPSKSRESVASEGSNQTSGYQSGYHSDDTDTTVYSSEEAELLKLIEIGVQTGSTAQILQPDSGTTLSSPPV
Sequence of SRPK2(h) (P78362 whole entry): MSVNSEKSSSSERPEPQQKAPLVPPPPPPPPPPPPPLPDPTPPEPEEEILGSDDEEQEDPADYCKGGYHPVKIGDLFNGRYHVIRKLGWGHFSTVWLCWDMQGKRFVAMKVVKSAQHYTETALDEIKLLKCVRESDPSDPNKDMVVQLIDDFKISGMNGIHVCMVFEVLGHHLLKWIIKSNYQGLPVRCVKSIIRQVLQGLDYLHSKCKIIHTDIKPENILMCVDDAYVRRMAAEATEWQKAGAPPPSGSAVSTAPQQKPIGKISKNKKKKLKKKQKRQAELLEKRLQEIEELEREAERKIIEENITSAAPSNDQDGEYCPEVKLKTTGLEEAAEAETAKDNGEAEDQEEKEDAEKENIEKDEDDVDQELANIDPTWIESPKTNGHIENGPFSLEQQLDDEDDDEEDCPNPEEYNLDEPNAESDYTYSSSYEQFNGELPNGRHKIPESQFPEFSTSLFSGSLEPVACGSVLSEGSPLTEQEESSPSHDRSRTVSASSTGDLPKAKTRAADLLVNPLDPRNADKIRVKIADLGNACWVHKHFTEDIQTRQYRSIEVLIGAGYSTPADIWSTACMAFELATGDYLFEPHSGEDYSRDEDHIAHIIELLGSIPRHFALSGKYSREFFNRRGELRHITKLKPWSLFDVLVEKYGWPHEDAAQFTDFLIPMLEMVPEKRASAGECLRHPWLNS

| Substance | % activity (EGFR(L858R)(h)) | % activity (IRAK4(h)) | % activity (KDR(h)) | % activity (FGFR3(h)) | % activity (Ret(h)) | % activity (SRPK2(h)) | % activity (IGF-1R(h), activated) | % activity (FGFR1(h)) | % activity (MAPKAP-K3(h)) | % activity (DCAMKL2(h)) | % activity (TrkB(h)) | % activity (Fms(h)) | % activity (DMPK(h)) | further results |
| --- | --- | --- | --- | --- | --- | --- | --- | --- | --- | --- | --- | --- | --- | --- |
| H-YARAAARQARAKALARQLGVAA-OH [MMI-0100] | – | – | – | – | – | – | – | – | – | – | – | – | – | activity at 100 µM (EGFR(L858R)(h)): 76%; activity at 100 µM (IRAK4(h)): 100%; activity at 100 µM (KDR(h)): 100%; activity at 100 µM (FGFR3(h)): 73%; activity at 100 µM (Ret(h)): 108%; activity at 100 µM (SRPK2(h)): 92%; activity at 100 µM (IGF-1R(h), activated): 126%; activity at 100 µM (FGFR1(h)): 120%; activity at 100 µM (MAPKAP-K3(h)): 27%; activity at 100 µM (DCAMKL2(h)): 146%; activity at 100 µM (TrkB(h)): 4%; activity at 100 µM (Fms(h)): 89%; activity at 100 µM (DMPK(h)): 60% |
| HRRIKAWLKKIKALARQLGVAA (Mammalian) [MMI-0500] | 26% | 3% | 15% | 10% | 174% | 80% | 45% | 18% | 9% | 56% | 12% | 14% | 12% | – |
| YARAAARQARAKALNRQLGVA (Mammalian) [MMI-0200] | 120% | 110% | 110% | 208% | 96% | 100% | 94% | 97% | 39% | 131% | 7% | 92% | 66% | – |
